The results in this text go back to doi:10.1101/488536, “The Ca^2+ sensor protein CMI1 fine tunes root development, auxin distribution and responses” (bioRxiv, 2018).

The target of one test is T1, GST-ICR1 (Arabidopsis, UniProt Q8LE98 1-344).
T1 construct: ICR1, Arabidopsis; source: E. coli Rosetta (DE3), purified (Glutathione sepharose)
T1 sequence (looked up): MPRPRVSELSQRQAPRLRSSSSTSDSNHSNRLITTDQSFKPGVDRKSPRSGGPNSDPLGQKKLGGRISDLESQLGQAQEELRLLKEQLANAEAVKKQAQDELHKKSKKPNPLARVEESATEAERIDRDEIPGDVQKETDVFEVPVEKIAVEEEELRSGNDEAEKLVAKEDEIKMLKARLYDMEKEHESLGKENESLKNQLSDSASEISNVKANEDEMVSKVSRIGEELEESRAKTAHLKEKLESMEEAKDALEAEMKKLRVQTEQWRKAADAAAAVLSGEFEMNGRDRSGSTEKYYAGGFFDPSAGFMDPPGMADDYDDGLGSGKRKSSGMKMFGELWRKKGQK
Nature of the test: pull-down; GST-ICR1 (1.2 μg) or GST (0.4 μg) on Glutathione sepharose, 0.5 μg His6-CMI1; 20 mM Tris-HCl pH 7.5, 5 mM CaCl2, 0.1 mg/mL BSA, 200 mM NaCl, 1% Triton X-100, RT; wash with 1 M NaCl. The following applies: both partners purified.

The target of another test is T2, His6-ICR1 (Arabidopsis, UniProt Q8LE98 1-344).
T2 construct: ICR1, Arabidopsis; also called His-ICR1; source: E. coli Rosetta (DE3), purified (Ni-NTA)
T2 sequence (looked up): T1 sequence (looked up)
Nature of the test: co-IP; His6-CMI1 and His6-ICR1, 1 μg each, in 300 μL Ca^2+ reaction buffer (20 mM Tris-HCl pH 7.5, 5 mM CaCl2, 0.1 mg/mL BSA, 200 mM NaCl, 1% Triton X-100), RT; anti-CMI1 antibodies and Protein A beads; blot with anti poly-His. The following applies: both partners purified.

B1: His6-CMI1 (natural protein, Arabidopsis, UniProt O81831 1-130, looked up)
chain: MASPKSPTRPTQQNPQPNFHDFLPTMAGNLGGEGLIGELCNGFELLMDREKGVITFESLRRNAAAVLGLGDLTDEDVRCMIKEGDFDCDGALNQMEFCVLMFRLSPDLMEASRCLVTEVIEEEFGFTRRH
notes: CMI1, Arabidopsis, At4g27280; also called His-CMI1; source: E. coli Rosetta (DE3), purified (Ni-NTA)
On to B1, for which the binding result with GST-ICR1 and with His6-ICR1 was “binds” each time.
